Experimental data reported in publication PMC5408658, “In vitro characterization of six STUB1 variants in spinocerebellar ataxia 16 reveals altered structural properties for the encoded CHIP proteins” (Bioscience Reports, 2017).

T1: His-maltose-binding protein (MBP)-CHIP fusion protein, wild type (human), Q9UNE7
T1 chain: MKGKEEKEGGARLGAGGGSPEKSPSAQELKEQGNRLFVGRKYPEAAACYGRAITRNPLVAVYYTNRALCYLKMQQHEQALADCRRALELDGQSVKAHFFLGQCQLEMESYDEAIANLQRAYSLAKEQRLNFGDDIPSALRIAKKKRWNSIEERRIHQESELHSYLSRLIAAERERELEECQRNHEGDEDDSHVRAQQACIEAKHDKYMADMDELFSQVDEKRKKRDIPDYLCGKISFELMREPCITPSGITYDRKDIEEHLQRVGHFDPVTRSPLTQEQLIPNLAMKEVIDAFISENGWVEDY


How the values were obtained:
[1] = biological target: T1, His-maltose-binding protein (MBP)-CHIP …; assay: SEC; 1 mg MBP-CHIP fusion protein, Superdex 200 Increase 10/300 GL, 20 mM NaH2PO4 pH 7.4, 0.3 ml/min, 4°C; self-association (monomers, dimers, higher oligomers); conditions: remark: other sources report otherwise
[2] = biological target: the molecule itself; assay: as above
[3] = biological target: the molecule itself; assay: native gel or EMSA; 10 ug MBP fusion protein on a 12% NativePAGE Bis-Tris gel, Coomassie Blue staining; self-association (oligomeric states)

Binder | binding result [3] | further results
His-maltose-binding protein (MBP)-CHIP fusion protein, wild type, Q9UNE7-1 1-303 (enzyme) MKGKEEKEGGARLGAGGGSPEKSPSAQELKEQGNRLFVGRKYPEAAACYGRAITRNPLVAVYYTNRALCYLKMQQHEQALADCRRALELDGQSVKAHFFLGQCQLEMESYDEAIANLQRAYSLAKEQRLNFGDDIPSALRIAKKKRWNSIEERRIHQESELHSYLSRLIAAERERELEECQRNHEGDEDDSHVRAQQACIEAKHDKYMADMDELFSQVDEKRKKRDIPDYLCGKISFELMREPCITPSGITYDRKDIEEHLQRVGHFDPVTRSPLTQEQLIPNLAMKEVIDAFISENGWVEDY |  | stoichiometry N [1]: 2
His-MBP-CHIP fusion protein, N65S (enzyme, human, UniProt Q9UNE7-1 1-303, looked up, CHIP (STUB1), human, full-length cDNA in pETM-41, pathogenic SCAR16 variant N65S; Variant found in patients; made by site-directed mutagenesis; also called CHIP-N65S; MBP-CHIP N65S; source: E. coli BL21-CodonPlus (DE3)-RP, purified (Ni-NTA)) MKGKEEKEGGARLGAGGGSPEKSPSAQELKEQGNRLFVGRKYPEAAACYGRAITRNPLVAVYYTSRALCYLKMQQHEQALADCRRALELDGQSVKAHFFLGQCQLEMESYDEAIANLQRAYSLAKEQRLNFGDDIPSALRIAKKKRWNSIEERRIHQESELHSYLSRLIAAERERELEECQRNHEGDEDDSHVRAQQACIEAKHDKYMADMDELFSQVDEKRKKRDIPDYLCGKISFELMREPCITPSGITYDRKDIEEHLQRVGHFDPVTRSPLTQEQLIPNLAMKEVIDAFISENGWVEDY |  | stoichiometry N [2]: 2
His-MBP-CHIP fusion protein, K145Q (enzyme, human, UniProt Q9UNE7-1 1-303, looked up, CHIP (STUB1), human, full-length cDNA in pETM-41, pathogenic SCAR16 variant K145Q; Variant found in patients; made by site-directed mutagenesis; also called MBP-CHIP K145Q; source: E. coli BL21-CodonPlus (DE3)-RP, purified (Ni-NTA)) MKGKEEKEGGARLGAGGGSPEKSPSAQELKEQGNRLFVGRKYPEAAACYGRAITRNPLVAVYYTNRALCYLKMQQHEQALADCRRALELDGQSVKAHFFLGQCQLEMESYDEAIANLQRAYSLAKEQRLNFGDDIPSALRIAKKQRWNSIEERRIHQESELHSYLSRLIAAERERELEECQRNHEGDEDDSHVRAQQACIEAKHDKYMADMDELFSQVDEKRKKRDIPDYLCGKISFELMREPCITPSGITYDRKDIEEHLQRVGHFDPVTRSPLTQEQLIPNLAMKEVIDAFISENGWVEDY | binds | 
His-MBP-CHIP fusion protein, S236T (enzyme, human, UniProt Q9UNE7-1 1-303, looked up, CHIP (STUB1), human, full-length cDNA in pETM-41, pathogenic SCAR16 variant S236T; Variant found in patients; made by site-directed mutagenesis; also called MBP-CHIP S236T; source: E. coli BL21-CodonPlus (DE3)-RP, purified (Ni-NTA)) MKGKEEKEGGARLGAGGGSPEKSPSAQELKEQGNRLFVGRKYPEAAACYGRAITRNPLVAVYYTNRALCYLKMQQHEQALADCRRALELDGQSVKAHFFLGQCQLEMESYDEAIANLQRAYSLAKEQRLNFGDDIPSALRIAKKKRWNSIEERRIHQESELHSYLSRLIAAERERELEECQRNHEGDEDDSHVRAQQACIEAKHDKYMADMDELFSQVDEKRKKRDIPDYLCGKITFELMREPCITPSGITYDRKDIEEHLQRVGHFDPVTRSPLTQEQLIPNLAMKEVIDAFISENGWVEDY | binds | 
His-MBP-CHIP fusion protein, T246M (enzyme, human, UniProt Q9UNE7-1 1-303, looked up, CHIP (STUB1), human, full-length cDNA in pETM-41, pathogenic SCAR16 variant T246M; Variant found in patients; made by site-directed mutagenesis; also called CHIP-T246M; MBP-CHIP T246M; source: E. coli BL21-CodonPlus (DE3)-RP, purified (Ni-NTA)) MKGKEEKEGGARLGAGGGSPEKSPSAQELKEQGNRLFVGRKYPEAAACYGRAITRNPLVAVYYTNRALCYLKMQQHEQALADCRRALELDGQSVKAHFFLGQCQLEMESYDEAIANLQRAYSLAKEQRLNFGDDIPSALRIAKKKRWNSIEERRIHQESELHSYLSRLIAAERERELEECQRNHEGDEDDSHVRAQQACIEAKHDKYMADMDELFSQVDEKRKKRDIPDYLCGKISFELMREPCIMPSGITYDRKDIEEHLQRVGHFDPVTRSPLTQEQLIPNLAMKEVIDAFISENGWVEDY | binds | 
His-MBP-CHIP fusion protein, M211I (enzyme, human, UniProt Q9UNE7-1 1-303, looked up, CHIP (STUB1), human, full-length cDNA in pETM-41, pathogenic SCAR16 variant M211I; Variant found in patients; made by site-directed mutagenesis; also called MBP-CHIP M211I; source: E. coli BL21-CodonPlus (DE3)-RP, purified (Ni-NTA)) MKGKEEKEGGARLGAGGGSPEKSPSAQELKEQGNRLFVGRKYPEAAACYGRAITRNPLVAVYYTNRALCYLKMQQHEQALADCRRALELDGQSVKAHFFLGQCQLEMESYDEAIANLQRAYSLAKEQRLNFGDDIPSALRIAKKKRWNSIEERRIHQESELHSYLSRLIAAERERELEECQRNHEGDEDDSHVRAQQACIEAKHDKYMADIDELFSQVDEKRKKRDIPDYLCGKISFELMREPCITPSGITYDRKDIEEHLQRVGHFDPVTRSPLTQEQLIPNLAMKEVIDAFISENGWVEDY | binds | 
